# Reference: the DeepSol protein solubility set
# Experiment: soluble on expression in E. coli; label from the status in PepcDB or PDB records
row,Sequence,soluble on expression in E. coli
1,MSQSASQDLSDFLGDDRFATVMADPPWRFTNRTGKVAPEHKRLARYPTMTLEDICALPVADYLQDRAHCYLWVPNALLPEGLQVLSAWGFEYKSNIVWHKVRKDGGSDGRGVGFYFRNVTELLLFGTKGKNARTLAPGRRQVNMMQTRKREHSRKPDEQYELIESCSWGPYLEMFGRGVRDGWTVWGNQADADYKPSWKTYSYNSGVAAELEHHHHHH,soluble
2,MSRDLLGLEGKIVMVTGAGRGFGRAIAHGYGRNGATVIAVDPDVELATGVASEVEALGATAIPIRGDMSVVLDVTSTFEKVEELFGLLDGIVHVTTAESKTPFVELLEGEWYDLMSQDVKSSLYVLQQGLRHLAGGGFVTIVLPPAARIEPHTVSVRKAVEGLIEGATRTFPGVRVNGVVPSRDPVGDPYDLPLVRAALGLGSMVSEGIRGVVLEVQLPEPPLEFEPYAALRELP,soluble
3,MSRPPSRPRMMCARVLLLLSVTGLVLACETGPSSGDYEQAVMQDRVQRDMQMREKESVLPPGRREAFRGLNFYEVDPAYRYTVPLRRFETPDTVMIPESTGDLRPQQRIGEVTVPLPEGPEELVVFRGEGDTPRGRLWIPFADSTNRHATYKGGRYVDLTSTDSDSVVVDFNRAYNPTCAYNPDFACPLPPPENRIAVPVAAGEKRPTFGGLEHHHHHH,not soluble
4,MSRRGGAPSRPPRPPIRYVATAPKPSRVVTRSRPEGVRWLRADGTPNWSQRVRRLPGDAKELASRPAVSVHKSAPILSAAEKIASHRVRGLVVIKGSGDAVLEGILLATDLVNYLGGGDYFQIVENRHRDSIYSALRKEVVATIMNRHPIAVSVSDDLDTILRIMVGEGIGFLPVLYDDGTLHGVITERNILGRIADIP,not soluble
5,MSRRSRSRSRSPKRDREERKRREDRDRDRERKRDRKDRERKRRHRSSSSEGSQAEPHQLGSIFREERRRRERNESPKLPPPPPPPPSDPPVDTSIPFDVSTLNEPTKKWLEEKIVEQVSARVHQLEAMMAEKATSARNEMEKMLRAQIEAEMAVELAECKKRDEESRKKCKQLEAELERKVLEAEESRKKFEEDRLAMLEQKSQLERDRAELARQKSDMKKNEQQAILNKSGNSRAPIKFKFGK,not soluble
6,MSRSTFSILPYINRQKVKADGTANILCRITVDGKSAAISTGISCTPQEWNAKKGEVRNARDNGRLASFLDEIKDKYNALLVANGIITVEMLKAVLKDKDTTGRFLLSFGDTIVEWYRTAKARQTFLHKRTWQKNLRDFVHSLDKDDIAFEDIDENFGEEYKLFLKRDQGRIDSYVNHCLLWLNMLMYKAVDRSIIRFNPIAKIGYEKKAAPKMTHISKADFIKMLSTPMADERTELARRCFIFASLTSLSYIDVKKLYPRHISENSEGRKFIRKEREKTGVEFFVPLHPIAEKILSLYNTTDDSKPVFPLGEKKDIYLDVHTLGMVLGISNKLGFHASRHTFGVLMLNEDIPIGSIAKMMGHADITSTQVYAQVTEQKISNDMDKLIAKREMNRLSNEKTIGK,not soluble
7,MSRTVMCRKYHEELPGLDRPPYPGAKGEDIYNNVSRKAWDEWQKHQTMLINERRLNMMNAEDRKFLQQEMDKFLSGEDYAKADGYVPPSA,soluble
8,MSRVCQVTGKRVQTGNNVSHANNKTRRRFLPNLHKRRFWVASENRWVKLRVSTCAVRTIDKNGIDAVLAELRASGEKVLEHHHHHH,not soluble
9,MSSAATPPPMEHTSSEDSTTAPLQTPSSSSCLDVTVAVGTSVSYLKASPLVSSPTSLVVDITESSSTLLYDKIKALPCEPVVTEVDTSTLRKETLNQIDGLLGPSPEALELRQLLNSPHLASCVQALDVVVCEIRDPKNEASGSGDKEGNCVSSDPAPAYLNGGVLPLGAQRAGTSFEHFNQSAVHTSYDEEEEELYDCMSRLRLVQFQKDTQEPMGITLKVNEDGRCFVARIMHGGMIHRQATLHVGDEIREINGMSVANRSVESLQEMLRDARGQVTFKIIPSYRSAPPACEIFVRAQFDYEPSQDDLIPCPQAGIPFKTGDILQVISKDDHNWWQARFVSSFPSIGNSSNAQRSNQQQVAGLIPSPELQEWRTACLAMERSKNTCNTHCMWFNKKKKYYTTKYLQKHSALFDQLDLVTYEEVMRLSQYRRKTLVLLGAHGVGRRHIKNTLIHRHPNRFAYPIPHTTRPPRKDEVDGKHYYFVTNEQMMADIQNNEYLEYGTHEESMYGTKLETIRNIHKSGKIAILDVEPQALKVLRTAEYSPFVVFIAAPNLQGMQDPDGSLEKLLNESDVLRQAFGHLFDFIITNSDIDDTIAQLERLVEKLPAYPQWLPVTWVY,not soluble
10,MSSAPLPPKPIERGYASAGLLARILVSKYMEHIPLYRQSEIYARQGVELSRNTMVRWVSEMADKLRPLYIALNDYVLEAGKVHADDTPVKVLAPGNGKTKTGRLWVYVRDDRNAGSSLPAAVWFAYSADRKGEHPQLHLAKYQGVLQADAYAGYNVLYETGRVKEAGCLAHARRKIHDEDVRRPTEMTQEALRRIAELYDIEAEIRGSPAEERLAVRKARSVQLMQSLYDWIQLQRKTLSKHAEMAKAFDYILNHWNALNEFCRDGRVEIDNNIGENALRSVAVGRKNYLFFGSDKGGESAAIIYSLLVTCKQNEVEPEDWLREVIEKLNDWPSNQVHELLPWNFSSVK,not soluble
11,MSSDKNGDILRPLSDSEVDELLDLYKVKFGIRNFHYLLLYNQRKWDRQLSEAQIPRNDLNHISLRKQFYTHRRGNFRTWGTYVSLHRDIVQSVSFFSWQPDGAAELWECLEQTQLIEWTQGALLTNVDLGFCNRVKELAVSRGVTAIQPRQCFGMVLSHEDAFCAKVPDLPSEFEIRRLRAEDAAMVHDSWPNKGEGSLTYLQALVRFNKSLGICRSDTGELIAWIFQNDFSGLGMLQVLPKAERRGLGGLLAAAMSREIARGEEITLTAWIVATNWRSEALLKRIGYQKDLVNEWIKLVPNSSLEHHHHHH,soluble
12,MSSEYIIGRNPVIEALRSGRDINKIWIAEGAAKGQVQIVLALAKENKIILQHAPKKKLDQLVEGNHQGVIAQVAAYQYAELEDLFKVAEKRNEDPFFLILDEIEDPHNLGSIMRTADATGAHGIIIPKRRAVGLTASVAKASTGAIEYIPVARVTNLSRTIDELKERGLWIAGTDAKGKTDYRNLDGKMPIGLVIGSEGKGMSRIIGEKCDFLITLPMVGKVTSLNASVAASLLMYEVYRKRNEIGK,soluble
13,MSSGDMTSEYKDKQGGGAGQPLTKSENNDGKKTLTNGMSRVHRVLTEDEIASGRSTRWTELEIHGRVKNLSPSLWQLTHLSALFLNNNGLTRLPPEIAQLTNLTMLDISNNKLRSLPTELGDMISLCHLYLNNNQLRVLPYELGKLFRIQTLGLQGNPLSPEISKIYHETNGAQKILQFLLDHLTINTHPPPERNWVMIRHADPERPIATFTVLCYNVLCDKYATVNQYSYCPSWALNWEYRKGLIIKEIRTYEADVITLQEVETEQFRTLFQPELKQLGYAGIFEAKSRAKTMGEEERKYVDGCAIFWKVDKFDMDKQYLFEFSSVAMKKASTSENMLNRVMPRDNIGLCAVLKIKESVYANKFLGRMQIPMNDNVVGNPLVVATAHIHWDPEFCDVKLVQSMMLTHEVSRVLEEVSKKYQITQQQVPVLICGDFNSLPDSGVFEYLSKGQITRRHMDLKSFRDDSCLEKFTNSTDKNVISHPLRLDSACDINSIPFTNYTLDFKGMIDYIFATPQSLARLGILGPFDPQWVQSNKILGFPHPHVASDHIPIMAQYAIIPTTHQRQQPLQQAGPAAGVIGGGFPSTPSGAQPFLRC,not soluble
14,MSSGRNISCRMATRSCFFRLLQGVEMLRIADKTFDSHLFTGTGKFASSQLMVEAIRASGSQLVTLAMKRVDLRQHNDAILEPLIAAGVTLLPNTSGAKTAEEAIFAAHLAREALGTNWLKLEIHPDARWLLPDPIETLKAAETLVQQGFVVLPYCGADPVLCKRLEEVGCAAVMPLGAPIGSNQGLETRAMLEIIIQQATVPVVVDAGIGVPSHAAQALEMGADAVLVNTAIAVADDPVNMAKAFRLAVEAGLLARQSGPGSRSYFAHATSPLTGFLEASA,soluble
15,MSSGVPVLHWNFGIGPITCHAWNKDRTQIAVSASSNDIHIFEWRNGDWQSIHTLSEHDLPVTGLDWGTKTNRIVSCSQDKNAFVWTFDKNVWKPELVLVRFNRAATYVKWSPLENKFAVGSGAKLVSVCYYEKENDWWVSKQIKKPIRSTVTCLDWHSNNVLLAVGSCDFKCRVFSAYVKEVDEKPSPNPWGQKMPFGQLMSEYSVGGWVHRVAFSPSGCRLAFVSHDSSVSFVDSTVDSQKVQNLLTIHLPFTTVEWITENSVVTAGHDCSPVLFVVSQDVLKEVCKLDVPSAAKSSTVNSALQLFKNIDRNNAAEKINVALKTLHQNRITQILPHSGTVGNVVKFTTCGTDGIVALWDLKNHPSLV,not soluble
